Assay results taken from paper PMC10786891, “Massively parallel profiling of RNA-targeting CRISPR-Cas13d”.

T1: EsCas13d, nuclease-dead (Eubacterium siraeum, UniProt B0MS50, R295A;H300A;R849A;H854A)
T1 sequence: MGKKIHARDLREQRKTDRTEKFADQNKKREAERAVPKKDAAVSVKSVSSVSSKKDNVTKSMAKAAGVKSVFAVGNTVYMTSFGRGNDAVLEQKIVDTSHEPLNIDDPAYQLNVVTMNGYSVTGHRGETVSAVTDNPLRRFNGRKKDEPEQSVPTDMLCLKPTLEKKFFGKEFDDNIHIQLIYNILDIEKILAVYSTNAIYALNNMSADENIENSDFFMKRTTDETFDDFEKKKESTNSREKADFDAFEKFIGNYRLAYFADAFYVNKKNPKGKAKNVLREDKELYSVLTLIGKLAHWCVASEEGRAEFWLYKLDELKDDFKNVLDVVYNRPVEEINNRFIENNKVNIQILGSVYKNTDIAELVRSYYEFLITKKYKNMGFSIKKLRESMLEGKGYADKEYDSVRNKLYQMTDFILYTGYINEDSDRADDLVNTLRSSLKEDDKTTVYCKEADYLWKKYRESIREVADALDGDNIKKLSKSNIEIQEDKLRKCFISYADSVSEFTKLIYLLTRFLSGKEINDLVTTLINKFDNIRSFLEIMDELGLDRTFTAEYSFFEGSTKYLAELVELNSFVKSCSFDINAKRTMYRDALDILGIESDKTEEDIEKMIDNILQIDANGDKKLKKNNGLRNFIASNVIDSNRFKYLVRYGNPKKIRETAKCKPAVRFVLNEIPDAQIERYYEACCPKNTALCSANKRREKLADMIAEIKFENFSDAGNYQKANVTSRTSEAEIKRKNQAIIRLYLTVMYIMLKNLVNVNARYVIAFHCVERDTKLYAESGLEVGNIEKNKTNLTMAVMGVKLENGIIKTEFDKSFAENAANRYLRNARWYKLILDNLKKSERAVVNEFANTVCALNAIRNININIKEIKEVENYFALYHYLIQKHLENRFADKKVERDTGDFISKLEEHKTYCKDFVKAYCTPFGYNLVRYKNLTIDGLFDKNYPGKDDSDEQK

B1: target 1 insC 3' of 19,insC 3' of 11 (mixed)
RNA 1: CACCCGUGCAAAAAUGCAGGGGUCUAAAACUGAGCGGAUAACCUCUCUAUGG
RNA 2: GGGAAUGGAUCCACAUCUACGAAUUCGUACCAUCAGAGAGGUCUAUCCGCUCACCGAGAUCGGAAGAGCACACGU
B2: target 1 C4U,U10C (mixed)
RNA 1: CACCCGUGCAAAAAUGCAGGGGUCUAAAACUGAGCGGAUAACCUCUCUAUGG
RNA 2: GGGAAUGGAUCCACAUCUACGAAUUCGUACCAUAGAGAGGUCAUCCGUUCACCGAGAUCGGAAGAGCACACGU
B3: target 1 G12A,A18C (mixed)
RNA 1: CACCCGUGCAAAAAUGCAGGGGUCUAAAACUGAGCGGAUAACCUCUCUAUGG
RNA 2: GGGAAUGGAUCCACAUCUACGAAUUCGUACCAUCGAGAGAUUAUCCGCUCACCGAGAUCGGAAGAGCACACGU
B4: target 1 U8G,G12C (mixed)
RNA 1: CACCCGUGCAAAAAUGCAGGGGUCUAAAACUGAGCGGAUAACCUCUCUAUGG
RNA 2: GGGAAUGGAUCCACAUCUACGAAUUCGUACCAUAGAGAGCUUAGCCGCUCACCGAGAUCGGAAGAGCACACGU
B5: target 1 insC 3' of 5,insU 3' of 2 (mixed)
RNA 1: CACCCGUGCAAAAAUGCAGGGGUCUAAAACUGAGCGGAUAACCUCUCUAUGG
RNA 2: GGGAAUGGAUCCACAUCUACGAAUUCGUACCAUAGAGAGGUUAUCCGCCUCUACCGAGAUCGGAAGAGCACACGU
B6: target 1 U11C,C21A (mixed)
RNA 1: CACCCGUGCAAAAAUGCAGGGGUCUAAAACUGAGCGGAUAACCUCUCUAUGG
RNA 2: GGGAAUGGAUCCACAUCUACGAAUUCGUACAAUAGAGAGGCUAUCCGCUCACCGAGAUCGGAAGAGCACACGU
B7: target 1 insA 3' of 10,insU 3' of 7 (mixed)
RNA 1: CACCCGUGCAAAAAUGCAGGGGUCUAAAACUGAGCGGAUAACCUCUCUAUGG
RNA 2: GGGAAUGGAUCCACAUCUACGAAUUCGUACCAUAGAGAGGUUAAUCUCGCUCACCGAGAUCGGAAGAGCACACGU
B8: target 1 C7G,G13A (mixed)
RNA 1: CACCCGUGCAAAAAUGCAGGGGUCUAAAACUGAGCGGAUAACCUCUCUAUGG
RNA 2: GGGAAUGGAUCCACAUCUACGAAUUCGUACCAUAGAGAAGUUAUGCGCUCACCGAGAUCGGAAGAGCACACGU
B9: target 1 insC 3' of 22,insG 3' of 22 (mixed)
RNA 1: CACCCGUGCAAAAAUGCAGGGGUCUAAAACUGAGCGGAUAACCUCUCUAUGG
RNA 2: GGGAAUGGAUCCACAUCUACGAAUUCGUACCGCAUAGAGAGGUUAUCCGCUCACCGAGAUCGGAAGAGCACACGU
B10: target 1 U10C,A16C (mixed)
RNA 1: CACCCGUGCAAAAAUGCAGGGGUCUAAAACUGAGCGGAUAACCUCUCUAUGG
RNA 2: GGGAAUGGAUCCACAUCUACGAAUUCGUACCAUAGCGAGGUCAUCCGCUCACCGAGAUCGGAAGAGCACACGU
B11: target 1 C6G,C7G (mixed)
RNA 1: CACCCGUGCAAAAAUGCAGGGGUCUAAAACUGAGCGGAUAACCUCUCUAUGG
RNA 2: GGGAAUGGAUCCACAUCUACGAAUUCGUACCAUAGAGAGGUUAUGGGCUCACCGAGAUCGGAAGAGCACACGU
B12: target 1 G5U,A16C (mixed)
RNA 1: CACCCGUGCAAAAAUGCAGGGGUCUAAAACUGAGCGGAUAACCUCUCUAUGG
RNA 2: GGGAAUGGAUCCACAUCUACGAAUUCGUACCAUAGCGAGGUUAUCCUCUCACCGAGAUCGGAAGAGCACACGU
B13: target 1 A9C,C21U (mixed)
RNA 1: CACCCGUGCAAAAAUGCAGGGGUCUAAAACUGAGCGGAUAACCUCUCUAUGG
RNA 2: GGGAAUGGAUCCACAUCUACGAAUUCGUACUAUAGAGAGGUUCUCCGCUCACCGAGAUCGGAAGAGCACACGU
B14: target 1 insA 3' of 10,insU 3' of 5 (mixed)
RNA 1: CACCCGUGCAAAAAUGCAGGGGUCUAAAACUGAGCGGAUAACCUCUCUAUGG
RNA 2: GGGAAUGGAUCCACAUCUACGAAUUCGUACCAUAGAGAGGUUAAUCCGUCUCACCGAGAUCGGAAGAGCACACGU
B15: target 1 U3A,A14C (mixed)
RNA 1: CACCCGUGCAAAAAUGCAGGGGUCUAAAACUGAGCGGAUAACCUCUCUAUGG
RNA 2: GGGAAUGGAUCCACAUCUACGAAUUCGUACCAUAGAGCGGUUAUCCGCACACCGAGAUCGGAAGAGCACACGU
B16: target 1 A9U,A18U (mixed)
RNA 1: CACCCGUGCAAAAAUGCAGGGGUCUAAAACUGAGCGGAUAACCUCUCUAUGG
RNA 2: GGGAAUGGAUCCACAUCUACGAAUUCGUACCAUUGAGAGGUUUUCCGCUCACCGAGAUCGGAAGAGCACACGU
B17: target 1 insG 3' of 22,insA 3' of 6 (mixed)
RNA 1: CACCCGUGCAAAAAUGCAGGGGUCUAAAACUGAGCGGAUAACCUCUCUAUGG
RNA 2: GGGAAUGGAUCCACAUCUACGAAUUCGUACGCAUAGAGAGGUUAUCCAGCUCACCGAGAUCGGAAGAGCACACGU
B18: target 1 insU 3' of 14,insA 3' of 6 (mixed)
RNA 1: CACCCGUGCAAAAAUGCAGGGGUCUAAAACUGAGCGGAUAACCUCUCUAUGG
RNA 2: GGGAAUGGAUCCACAUCUACGAAUUCGUACCAUAGAGAUGGUUAUCCAGCUCACCGAGAUCGGAAGAGCACACGU
B19: target 1 insG 3' of 22,insA 3' of 22 (mixed)
RNA 1: CACCCGUGCAAAAAUGCAGGGGUCUAAAACUGAGCGGAUAACCUCUCUAUGG
RNA 2: GGGAAUGGAUCCACAUCUACGAAUUCGUACGACAUAGAGAGGUUAUCCGCUCACCGAGAUCGGAAGAGCACACGU
B20: target 1 insC 3' of 13,insA 3' of 11 (mixed)
RNA 1: CACCCGUGCAAAAAUGCAGGGGUCUAAAACUGAGCGGAUAACCUCUCUAUGG
RNA 2: GGGAAUGGAUCCACAUCUACGAAUUCGUACCAUAGAGAGCGUAUAUCCGCUCACCGAGAUCGGAAGAGCACACGU
B21: target 1 insG 3' of 22,insG 3' of 16 (mixed)
RNA 1: CACCCGUGCAAAAAUGCAGGGGUCUAAAACUGAGCGGAUAACCUCUCUAUGG
RNA 2: GGGAAUGGAUCCACAUCUACGAAUUCGUACGCAUAGAGGAGGUUAUCCGCUCACCGAGAUCGGAAGAGCACACGU
B22: target 1 insU 3' of 17,insU 3' of 6 (mixed)
RNA 1: CACCCGUGCAAAAAUGCAGGGGUCUAAAACUGAGCGGAUAACCUCUCUAUGG
RNA 2: GGGAAUGGAUCCACAUCUACGAAUUCGUACCAUAGUAGAGGUUAUCCUGCUCACCGAGAUCGGAAGAGCACACGU
B23: target 1 insA 3' of 11,insA 3' of 6 (mixed)
RNA 1: CACCCGUGCAAAAAUGCAGGGGUCUAAAACUGAGCGGAUAACCUCUCUAUGG
RNA 2: GGGAAUGGAUCCACAUCUACGAAUUCGUACCAUAGAGAGGUAUAUCCAGCUCACCGAGAUCGGAAGAGCACACGU
B24: target 1 U19A (mixed)
RNA 1: CACCCGUGCAAAAAUGCAGGGGUCUAAAACUGAGCGGAUAACCUCUCUAUGG
RNA 2: GGGAAUGGAUCCACAUCUACGAAUUCGUACCAAAGAGAGGUUAUCCGCUCACCGAGAUCGGAAGAGCACACGU
B25: target 1 insA 3' of 19,insG 3' of 4 (mixed)
RNA 1: CACCCGUGCAAAAAUGCAGGGGUCUAAAACUGAGCGGAUAACCUCUCUAUGG
RNA 2: GGGAAUGGAUCCACAUCUACGAAUUCGUACCAUAAGAGAGGUUAUCCGCGUCACCGAGAUCGGAAGAGCACACGU
B26: target 1 A1U,G15C (mixed)
RNA 1: CACCCGUGCAAAAAUGCAGGGGUCUAAAACUGAGCGGAUAACCUCUCUAUGG
RNA 2: GGGAAUGGAUCCACAUCUACGAAUUCGUACCAUAGACAGGUUAUCCGCUCUCCGAGAUCGGAAGAGCACACGU
B27: target 1 insG 3' of 18,insA 3' of 2 (mixed)
RNA 1: CACCCGUGCAAAAAUGCAGGGGUCUAAAACUGAGCGGAUAACCUCUCUAUGG
RNA 2: GGGAAUGGAUCCACAUCUACGAAUUCGUACCAUAGGAGAGGUUAUCCGCUCAACCGAGAUCGGAAGAGCACACGU
B28: target 1 insU 3' of 22 (mixed)
RNA 1: CACCCGUGCAAAAAUGCAGGGGUCUAAAACUGAGCGGAUAACCUCUCUAUGG
RNA 2: GGGAAUGGAUCCACAUCUACGAAUUCGUACUCAUAGAGAGGUUAUCCGCUCACCGAGAUCGGAAGAGCACACGU

Target: T1, EsCas13d, nuclease-dead
Test: crRNA (strand 1, pre-loaded); Mg2+; 40 mM Tris-HCl pH 7.5, 150 mM NaCl, 6 mM MgCl2, 1 mM DTT, 0.1% Tween-20, 0.2 mg/ml BSA; 25 C; 10 min per concentration, then washed
Details: tags: His6-TwinStrep-SUMO cleaved; N-terminal SNAP kept (SNAP-Surface 488); label: 3' end held by stalled T7 RNA polymerase

| Binder | Kd [nM] |
| --- | --- |
| B1 | 48 ± 9 |
| B2 | 52 ± 23 |
| B3 | 51 ± 7 |
| B4 | 16.4 ± 0.8 |
| B5 | 15.2 ± 0.6 |
| B6 | 51 ± 6 |
| B7 | 39.3 ± 2.6 |
| B8 | 15.8 ± 1.5 |
| B9 | 12.6 ± 0.6 |
| B10 | 95 ± 8 |
| B11 | 13.3 ± 0.7 |
| B12 | 60 ± 7 |
| B13 | 9.9 ± 0.4 |
| B14 | 14.2 ± 1.1 |
| B15 | 20.8 ± 1 |
| B16 | 44.9 ± 3.5 |
| B17 | 54 ± 18 |
| B18 | 80 ± 32 |
| B19 | 30.8 ± 2.9 |
| B20 | 19.1 ± 2.2 |
| B21 | 57 ± 8 |
| B22 | 29.7 ± 2.9 |
| B23 | 13.2 ± 1 |
| B24 | 28.8 ± 1.5 |
| B25 | 15.1 ± 0.7 |
| B26 | 56 ± 24 |
| B27 | 73 ± 25 |
| B28 | 38 ± 5 |
